Series [1] deals with ΔmIAPP, albumin-control and Hb-control. Put plainly: ELISA: binding of human FXII to negative controls. Here is the method:
(§1) The binding of human FXII (Calbiochem, La Jolla, Calif., USA, catalogue #233490) to amyloid (poly)peptides was tested. Prototype amyloid peptides human amyloid-β (1-40) (hAβ (1-40)) and human fibrin fragment α147-159 FP13, and glucose-6-phosphate glycated bovine albumin (albumin-advanced glycation end product (AGE)) and glucose-6-phosphate glycated human hemoglobin (Hb-AGE), all containing cross-β structure, as well as negative controls mouse A islet amyloid polypeptide (ΔmIAPP), albumin-control and Hb-control, all three lacking the amyloid-specific structure, were coated to ELISA plates and overlayed with a concentration series of human factor XII. Binding of FXII was detected using a rabbit polyclonal anti-FXII antibody (Calbiochem, La Jolla, Calif., USA, catalogue #233504) and peroxidase-labeled swine anti-rabbit IgG. Wells were coated in triplicate. The FXII binding buffer included 10 mM HEPES pH 7.3, 137 mM NaCl, 11 mM D-glucose, 4 mM KCl, 1 mg ml^−1 albumin, 50 μM ZnCl2, 0.02% (m/v) NaN3 and 10 mM ε-amino caproic acid (εACA). Lysine analogue εACA was added to avoid putative binding of FXII to cross-β structure via the FXII kringle domain. In addition, binding of FXII to hAβ (1-40) and the prototype amyloid human amylin fragment hΔIAPP was tested using dot blot analysis. […]
For orientation: ELISA stands for enzyme-linked immunosorbent assay.

The target in a further series is T1, hAβ (1-40) (Homo sapiens, UniProt P05067).
T1 construct: Peptide Aβ (1-40), containing amino acids as present in the described human Alzheimer peptide; purchased Pepscan, Inc. or peptide synthesis facility of the Netherlands Cancer Institute; host or cells: chemical synthesis
T1 sequence (P05067 672-711): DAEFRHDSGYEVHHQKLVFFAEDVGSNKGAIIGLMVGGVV
Nature of the series: Dot blot: binding of FXII to hAβ (1-40). The settings on record: 2 nM FXII. How it is done:
as §1

The target in series [2] is T2, human amylin fragment hΔIAPP (Homo sapiens, UniProt P10997).
T2 construct: purchased Pepscan, Inc. or peptide synthesis facility of the Netherlands Cancer Institute; host or cells: chemical synthesis
Nature of the series: Dot blot: binding of FXII to hΔIAPP. The conditions noted are these: 2 nM FXII. How it is done:
as §1

The target in series [3] is T3, mΔIAPP (Mus musculus, UniProt P12968).
T3 construct: purchased Pepscan, Inc. or peptide synthesis facility of the Netherlands Cancer Institute; host or cells: chemical synthesis
Put plainly: Dot blot: binding of FXII to mΔIAPP. The conditions noted are these: 2 nM FXII. Here is the method:
as §1

For series [4], the target named is T4, tPA-mediated plasminogen activation (Homo sapiens, UniProt P00750).
T4 construct: purchased Boehringer-Ingelheim (Germany)
T4 sequence (P00750 36-562): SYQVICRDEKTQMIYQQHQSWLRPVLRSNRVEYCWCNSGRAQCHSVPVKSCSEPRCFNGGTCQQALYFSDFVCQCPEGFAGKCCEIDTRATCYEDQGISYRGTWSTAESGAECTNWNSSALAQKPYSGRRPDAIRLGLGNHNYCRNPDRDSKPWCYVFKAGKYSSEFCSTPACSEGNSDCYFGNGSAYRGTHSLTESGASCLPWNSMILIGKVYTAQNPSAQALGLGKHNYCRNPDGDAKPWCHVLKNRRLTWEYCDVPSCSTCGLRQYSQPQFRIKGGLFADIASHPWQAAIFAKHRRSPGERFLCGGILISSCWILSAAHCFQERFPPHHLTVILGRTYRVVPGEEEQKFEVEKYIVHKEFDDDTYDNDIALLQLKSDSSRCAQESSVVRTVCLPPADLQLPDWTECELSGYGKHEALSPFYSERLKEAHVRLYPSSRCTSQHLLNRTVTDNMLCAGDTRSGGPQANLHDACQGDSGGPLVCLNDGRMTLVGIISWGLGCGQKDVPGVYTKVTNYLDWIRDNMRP
Put plainly: Plasminogen activation assay. In kind it is biochemical. The settings on record: plasminogen 200 μg ml−1, tPA 200 pM, 5 μM co-factor; S-2251. Here is the method:
Plasminogen (200 μg ml^−1) was incubated with tPA (200 pM) in the presence or the absence of a co-factor (5 μM of either endostatin, Aβ (1-40), or one the fibrin-derived peptides 85, 86 and 87). At the indicated time intervals, samples were taken and the reaction was stopped in a buffer containing 5 mM EDTA and 150 mM εACA. After collection of the samples, a chromogenic plasmin substrate S-2251 was added and plasmin activity was determined kinetically in a spectrophotometer at 37° C.

In another series the test system is neuronal cell death. Put plainly: Endostatin-induced cell death by methylene blue staining. In kind it is cell-based. The conditions noted are these: precipitated form. The source says: FIG. 6 is a set of graphs illustrating that endostatin can form fibers comprising cross-β structure and stimulates plasminogen activation. […] Aβ is shown for comparison. Panel D is an analysis of endostatin-induced cell death by methylene blue staining. […] Direct cell death, but not cell detachment, is protected in the presence of sufficient glucose. Buffer prec. indicates control buffer.

The next series has as its target T5, Aβ (Homo sapiens, UniProt P05067).
T5 construct: Peptide Aβ (1-40), containing amino acids as present in the described human Alzheimer peptide; purchased Pepscan, Inc. or peptide synthesis facility of the Netherlands Cancer Institute; host or cells: chemical synthesis
Put plainly: Solid-phase binding ELISA of tPA, plasminogen and plasmin to coated Aβ. The settings on record: 50 mM ε-aminocaproic acid. Here is the method: FIG. 3 is a set of graphs depicting binding of tPA, plasminogen and plasmin to Aβ. Aβ was coated onto plastic 96-well plates. Increasing concentrations of either (A) tPA or (B) plasmin(ogen) were allowed to bind to the immobilized peptide. After extensive washing, tPA and plasmin(ogen) binding was assessed by enzyme-linked immunosorbent assays using anti-tPA and anti-plasminogen antibodies. Binding of (C) tPA and (D) plasmin to Aβ in the presence of 50 mM ε-aminocaproic acid (ε-ACA) was assessed as in A and B.
To test whether tPA, plasminogen and plasmin bind Aβ, solid-phase binding assays were performed. Aβ was coated onto plastic 96-well plates and binding of the peptide to either plasmin(ogen) or to tPA was assessed by overlaying the coated peptide with increasing concentrations of either tPA, plasminogen or plasmin. Binding was assessed using specific antibodies to either plasmin(ogen) or to tPA by performing ELISA. […] However, activated plasminogen (plasmin) does bind to Aβ and does so with a kD of 47 nM. […] To test this, use was made of the lysine analogue ε-aminocaproic acid (εACA) and binding of plasmin and tPA to Aβ was tested in its presence. […] In contrast, εACA has no effect on the tPA-Aβ interaction (FIG. 3, Panel C). Thus, it was concluded that plasmin binds to free lysines that were generated during the incubation period, presumably via its lysine-binding Kringle domain(s). In line with this, the kD of plasminogen Kringle domain binding to free lysines in fibrin is similar to the kD for plasmin binding to Aβ.

The target of series [5] is T6, albumin-g6p (Bos taurus, UniProt P02769).
T6 construct: Bovine serum albumin (BSA) fraction V pH 7.0; host or cells: bovine serum, fraction V
T6 sequence (P02769 25-607): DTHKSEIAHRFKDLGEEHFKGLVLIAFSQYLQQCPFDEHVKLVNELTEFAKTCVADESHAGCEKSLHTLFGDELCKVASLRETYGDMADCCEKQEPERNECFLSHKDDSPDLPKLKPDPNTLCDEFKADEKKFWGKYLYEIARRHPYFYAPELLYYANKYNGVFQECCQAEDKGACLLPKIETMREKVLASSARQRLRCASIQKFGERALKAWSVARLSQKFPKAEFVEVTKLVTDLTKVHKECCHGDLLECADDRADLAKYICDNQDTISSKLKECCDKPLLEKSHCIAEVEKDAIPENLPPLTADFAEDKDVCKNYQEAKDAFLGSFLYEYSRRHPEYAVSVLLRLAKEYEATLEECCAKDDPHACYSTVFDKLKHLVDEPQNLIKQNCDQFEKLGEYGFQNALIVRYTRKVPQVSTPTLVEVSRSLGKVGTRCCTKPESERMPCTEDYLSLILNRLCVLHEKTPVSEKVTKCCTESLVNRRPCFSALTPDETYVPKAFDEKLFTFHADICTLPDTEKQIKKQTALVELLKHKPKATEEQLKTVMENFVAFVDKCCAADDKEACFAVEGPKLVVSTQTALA
Nature of the series: Competitive binding of Thioflavin T and tPA to albumin-g6p (fluorescence, absorbance). Set-up: species or system bovine. The settings on record: increasing amounts of tPA. Here is the method:
A solution of 430 nM albumin-g6p and 19 μM of Thioflavin T was incubated with increasing amounts of tPA, for one hour at room temperature. For blank readings, albumin-g6p was omitted. Samples were prepared in four-fold in 50 mM glycine-NaOH pH 9. Emission measurements were performed as described above.
Albumin-g6p (500 nM) and Thioflavin T (10 μM) were incubated with increasing amounts of tPA, in 50 mM glycine-NaOH pH 9, for one hour at room temperature. Absorbance measurements were performed at the albumin-g6p Thioflavin T absorbance maximum at 420 nm. Samples were prepared in four-fold. For blank readings, albumin-g6p was omitted in the solutions. Absorbance was read in a quartz cuvette on a Pharmacia Biotech Ultrospec 3000 UV/visible spectrophotometer (Cambridge, England).

Series [6] has as its target T7, FXII binding to hAβ (1-40) (Homo sapiens, UniProt P05067).
T7 construct: Peptide Aβ (1-40), containing amino acids as present in the described human Alzheimer peptide; purchased Calbiochem (FXII); Pepscan or Netherlands Cancer Institute (peptide) 233490 (FXII)
Nature of the series: Competitive FXII - tPA ELISA on coated hAβ (1-40). The settings on record: 2.5 nM FXII; concentration series up to 135 times the kD.

Series [7] has as its target T8, FXII binding to albumin-AGE (Bos taurus, UniProt P02769).
T8 construct: bovine serum albumin (fraction V, catalogue #A-7906); purchased Calbiochem (FXII); ICN or Sigma-Aldrich (albumin) 233490 (FXII); A-7906 (Sigma albumin)
Nature of the series: Competitive FXII - tPA ELISA on coated albumin-AGE. The conditions noted are these: 15 nM FXII; concentration series up to 150 times the kD.

In series [8] the target is T3, mΔIAPP. Nature of the series: Amyloid ELISA with tPA F-EGF-GST: non-amyloid control. In kind it is binding. How it is done: In order to define the affinity of the purified tPA F-EGF-GST recombinant protein, ELISAs were performed with immobilized amyloid (poly)peptides and non-amyloid control ΔmIAPP. Twenty-five μg ml^−1 of Aβ, FP13, IAPP or ΔmIAPP was immobilized on Exiqon peptide immobilizer plates. A concentration series of tPA F-EGF-GST in the presence of excess εACA was added to the wells and binding was assayed using anti-GST antibody Z-5. As a control, GST (Sigma-Aldrich, St. Louis, Mo., USA, catalogue #G-5663) was used at the same concentrations.

Series [9] has as its target T6, albumin-g6p. Nature of the series: ELISA: binding of tPA-F-GST and RPTPμ-GST to glycated albumin. Set-up: species or system bovine. The settings on record: in the presence of excess εACA. Here is the method: (§2) Binding of tPA-F-GST and RPTPμ-GST to fibrous amyloids human Aβ (1-40) and albumin-[…] was assayed with an ELISA. In brief, human Aβ (1-40), albumin-[…], or buffer only, were coated on a peptide I Immobilizer or a protein I Immobilizer, respectively. Wells were incubated with the purified GST-tagged constructs or control medium and binding was detected using primary anti-GST monoclonal antibody 2F3 and RAMPO. The wells were also incubated with […] of tPA in the presence of 10 mM of εACA. Binding of tPA is independent of the lysyl binding site located at the kringle 2 domain. Binding of tPA was measured using primary antibody 374B and RAMPO. Experiments were performed in triplicate and blank readings of non-coated wells were substracted.

Series [10] concerns anti-AGE1 binding to amyloid peptides (Aβ (1-40), IAPP). Nature of the series: Competitive ELISA: tPA and anti-AGE1 on immobilized Aβ (1-40) and IAPP. The conditions noted are these: 250 or 18 nM α-AGE1; 10 mM εACA. How it is done:
(§3) For ELISAs, amyloid compounds were immobilized on Exiqon peptide or protein Immobilizers (Vedbaek, Denmark), as described before. Anti-AGE antibodies and commercially available anti-Aβ (1-42) H-43 (Santa Cruz Biotechnology, Santa Cruz, Calif., USA) were diluted in PBS with 0.1% v/v Tween 20. Rabbit anti-human vitronectin K9234 was a kind gift of Dr. H. de Boer (UMC Utrecht) and was used as a negative control. For ELISAs with mouse polyclonal anti-albumin-AGE/Aβ, control serum with antibody elicited against an unrelated protein was used. Binding of mouse polyclonal anti-albumin-AGE/Aβ was performed using a dilution series of serum in PBS/0.1% Tween 20. For competitive binding assays with IAPP, anti-AGE1 was pre-incubated with varying IAPP concentrations. The IAPP fibers were spun down and the supernatant was applied in triplicate to wells of an ELISA plate coated with Aβ. Competitive binding assays with multiligand cross-β structure binding serine protease tPA were performed in a slightly different way. Coated Aβ and IAPP are overlayed with an anti-AGE1 or anti-Aβ (1-42) H-43 concentration related to the kD, together with a concentration series of tPA. A 10^7-10^4 times molar excess of lysine analogue εACA (10 mM) was present in the binding buffer in order to avoid binding of tPA to lysine residues of Aβ and IAPP, which would be independent of the presence of amyloid structures.

In series [11] the target is T9, H-43 binding to immobilized IAPP (Homo sapiens, UniProt P10997).
T9 construct: purchased Pepscan, Inc. (The Netherlands) or peptide synthesis facility at the Netherlands Cancer Institute; host or cells: synthetic peptide
T9 sequence (P10997 34-70 limits assumed): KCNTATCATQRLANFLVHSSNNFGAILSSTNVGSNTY
Put plainly: Competitive ELISA: tPA and H-43 on immobilized IAPP. The conditions noted are these: 100 nM H-43, concentration series of tPA. How it is done: as §3

The next series addresses Aβ (1-40) (Homo sapiens, UniProt P05067). Put plainly: ELISA: binding of tPA-F-GST and RPTPμ-GST to human Aβ (1-40). Set-up: Peptide Aβ (1-40), containing amino acids as present in the described human Alzheimer peptide; purchased Pepscan, Inc. (The Netherlands) or peptide synthesis facility at the Netherlands Cancer Institute; host or cells: synthetic peptide. The conditions noted are these: in the presence of excess εACA. Here is the method:
as §2

This is an account of results in patent US8158585B2, “Cross-β structure comprising amyloid-binding proteins and methods for detection of the cross-β structure, for modulating cross-β structures fiber formation and modulating cross-β structure-mediated toxicity” (CrossBeta Biosciences B.V., priority 2002, dated 2012).

T7 sequence (P05067 672-711): as the sequence (P05067 672-711) above
T5 sequence (P05067 672-711): as above
Aβ (1-40), sequence (P05067 672-711): as above
T8 sequence (P02769 25-607): as the sequence (P02769 25-607) above

As to “FXII: human FXII (Calbiochem, catalogue #233490)”, the “binding to negative controls ΔmIAPP, albumin-control and Hb-control” value in series [1] is “does not bind”. For the same substance, in the series with hAβ (1-40), the “binding to spotted hAβ (1-40)” value is listed as “specifically bound”. For the same substance, the “binding to spotted hΔIAPP” value in [2] was “specifically bound”. The “binding to spotted mΔIAPP” value in the series with mΔIAPP [3] is “No binding”.
Turning to endostatin, the “stimulation of tPA-mediated plasmin formation” value in [4] is listed as “stimulating activity”. In addition, the “induction of cell death” value in the series on neuronal cell death is on record as “capable of efficiently inducing cell death”.
Consider “tPA: Alteplase (recombinant tissue-type plasminogen activator, tPA) from Boehringer-Ingelheim”, for which the “binding to Aβ in the presence of εACA” value with Aβ is given as “no effect”. Further, in the series with albumin-g6p [5], the “competition with binding of Thioflavin T to glycated albumin” value is “competed”. The “inhibition of FXII binding to hAβ (1-40)” value in series [6] is reported as “efficiently inhibits”. In addition, the “inhibition of FXII binding to albumin-AGE” value in series [7] is recorded as “effectively abolished”. The “binding to non-amyloid mΔIAPP” value with mΔIAPP [8] was “No binding”. Further, the “binding of control tPA to albumin-g6p” value in the series with albumin-g6p [9] is reported as “bound”. Further, the “inhibition of anti-AGE1 binding to amyloid peptides” value in [10] was “inhibited”. Further, the “inhibition of H-43 binding to immobilized IAPP” value in [11] is given as “effectively diminished”. Moreover, the “binding of control tPA to human Aβ (1-40)” value in the series with Aβ (1-40) is recorded as “bound”.
